This passage reports screen value results from publication PMC7666136 (2020).

The labels stand for the following.
B1: eGFP-53BP1 (wild-type TP53-binding protein 1 tagged with enhanced green fluorescent protein) [not stated] / itself (parent complex)
chain: MDPTGSQLDSDFSQQDTPCLIIEDSQPESQVLEDDSGSHFSMLSRHLPNLQTHKENPVLDVVSNPEQTAGEERGDGNSGFNEHLKENKVADPVDSSNLDTCGSISQVIEQLPQPNRTSSVLGMSVESAPAVEEEKGEELEQKEKEKEEDTSGNTTHSLGAEDTASSQLGFGVLELSQSQDVEENTVPYEVDKEQLQSVTTNSGYTRLSDVDANTAIKHEEQSNEDIPIAEQSSKDIPVTAQPSKDVHVVKEQNPPPARSEDMPFSPKASVAAMEAKEQLSAQELMESGLQIQKSPEPEVLSTQEDLFDQSNKTVSSDGCSTPSREEGGCSLASTPATTLHLLQLSGQRSLVQDSLSTNSSDLVAPSPDAFRSTPFIVPSSPTEQEGRQDKPMDTSVLSEEGGEPFQKKLQSGEPVELENPPLLPESTVSPQASTPISQSTPVFPPGSLPIPSQPQFSHDIFIPSPSLEEQSNDGKKDGDMHSSSLTVECSKTSEIEPKNSPEDLGLSLTGDSCKLMLSTSEYSQSPKMESLSSHRIDEDGENTQIEDTEPMSPVLNSKFVPAENDSILMNPAQDGEVQLSQNDDKTKGDDTDTRDDISILATGCKGREETVAEDVCIDLTCDSGSQAVPSPATRSEALSSVLDQEEAMEIKEHHPEEGSSGSEVEEIPETPCESQGEELKEENMESVPLHLSLTETQSQGLCLQKEMPKKECSEAMEVETSVISIDSPQKLAILDQELEHKEQEAWEEATSEDSSVVIVDVKEPSPRVDVSCEPLEGVEKCSDSQSWEDIAPEIEPCAENRLDTKEEKSVEYEGDLKSGTAETEPVEQDSSQPSLPLVRADDPLRLDQELQQPQTQEKTSNSLTEDSKMANAKQLSSDAEAQKLGKPSAHASQSFCESSSETPFHFTLPKEGDIIPPLTGATPPLIGHLKLEPKRHSTPIGISNYPESTIATSDVMSESMVETHDPILGSGKGDSGAAPDVDDKLCLRMKLVSPETEASEESLQFNLEKPATGERKNGSTAVAESVASPQKTMSVLSCICEARQENEARSEDPPTTPIRGNLLHFPSSQGEEEKEKLEGDHTIRQSQQPMKPISPVKDPVSPASQKMVIQGPSSPQGEAMVTDVLEDQKEGRSTNKENPSKALIERPSQNNIGIQTMECSLRVPETVSAATQTIKNVCEQGTSTVDQNFGKQDATVQTERGSGEKPVSAPGDDTESLHSQGEEEFDMPQPPHGHVLHRHMRTIREVRTLVTRVITDVYYVDGTEVERKVTEETEEPIVECQECETEVSPSQTGGSSGDLGDISSFSSKASSLHRTSSGTSLSAMHSSGSSGKGAGPLRGKTSGTEPADFALPSSRGGPGKLSPRKGVSQTGTPVCEEDGDAGLGIRQGGKAPVTPRGRGRRGRPPSRTTGTRETAVPGPLGIEDISPNLSPDDKSFSRVVPRVPDSTRRTDVGAGALRRSDSPEIPFQAAAGPSDGLDASSPGNSFVGLRVVAKWSSNGYFYSGKITRDVGAGKYKLLFDDGYECDVLGKDILLCDPIPLDTEVTALSEDEYFSAGVVKGHRKESGELYYSIEKEGQRKWYKRMAVILSLEQGNRLREQYGLGPYEAVTPLTKAADISLDNLVEGKRKRRSNVSSPATPTASSSSSTTPTRKITESPRASMGVLSGKRKLITSEEERSPAKRGRKSATVKPGAVGAGEFVSPCESGDNTGEPSALEEQRGPLPLNKTLFLGYAFLLTMATTSDKLASRSKLPDGPTGSSEEEEEFLEIPPFNKQYTESQLRAGAGYILEDFNEAQCNTAYQCLLIADQHCRTRKYFLCLASGIPCVSHVWVHDSCHANQLQNYRNYLLPAGYSLEEQRILDWQPRENPFQNLKVLLVSDQQQNFLELWSEILMTGGAASVKQHHSSAHNKDIALGVFDVVVTDPSCPASVLKCAEALQLPVVSQEWVIQCLIVGERIGFKQHPKYKHDYVSH

In the first test the parent is B1. As to the kind of experiment: Number and brightness (NB) analysis of fluorescence fluctuation spectroscopy in live DIvA cells; live DIvA cell nuclei, transient transfection, N = 10 cells, two biological replicates; value is the box median; parent: 0.22; read off a plot.
With chain 1 Y1258A, chain 1 Y1259A, the screen value was ~0.06 fraction (pixels).

The variants in the next test derive from B1. As to the kind of experiment: Number and brightness (NB) analysis of fluorescence fluctuation spectroscopy in live DIvA cells; single representative cell ROI; value is the top of the teal (monomer) segment of the stacked bar, the rest of the bar being dimer (green); parent: 0.79; read off a plot.
For the variant chain 1 Y1258A, chain 1 Y1259A, the screen value is ~0.96 fraction (pixels).
